In PMC12628836:

Tests used:
Test in all cases: ELISA; attachment factors coated at 280.0 pmol/mL in carbonate-bicarbonate buffer overnight at 4 C, blocked with 1.0% BSA; P protein (GI.1 or GII.4) 10.0 ug/mL, 1 h at 37 C; detected with anti-HuNoV monoclonal antibodies; positive when S/N >= 2.0
[1] = molecular target: recombinant C2JVE6 (ATP-dependent zinc metalloprotease) (Lactobacillus rhamnosus YQ001)
[2] = molecular target: recombinant C2K0J4 (Penicillin-binding protein, transpeptidase domain protein) (Lactobacillus rhamnosus YQ001)
[3] = molecular target: recombinant oyster heat shock protein 70 (oyster)
[4] = molecular target: recombinant C2JX39 (DNA topoisomerase 4 subunit A) (Lactobacillus rhamnosus YQ001)

Chain of GI.1 HuNoV P protein (domain or fragment) (Q83884 226-530 limits assumed): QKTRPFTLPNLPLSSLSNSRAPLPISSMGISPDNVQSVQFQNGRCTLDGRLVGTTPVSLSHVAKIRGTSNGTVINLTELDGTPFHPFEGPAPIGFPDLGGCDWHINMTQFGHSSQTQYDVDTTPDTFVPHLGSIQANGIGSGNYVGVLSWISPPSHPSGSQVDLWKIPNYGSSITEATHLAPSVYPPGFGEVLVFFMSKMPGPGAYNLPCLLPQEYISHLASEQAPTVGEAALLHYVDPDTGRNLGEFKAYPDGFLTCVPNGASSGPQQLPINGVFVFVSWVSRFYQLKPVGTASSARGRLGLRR

| Substance | S/N ratio [1] | S/N ratio [2] | S/N ratio [3] | S/N ratio [4] |
| --- | --- | --- | --- | --- |
| GII.4 HuNoV P protein (domain or fragment) | 16.7 | 17.3 | 16 | – |
| GI.1 HuNoV P protein (domain or fragment) | 16.6 | 16.4 | 15.5 | 16.4 |
